Measurements from US8071548B2, “Method of reducing injury to mammalian cells” (Nono, Inc., priority 2002, dated 2011).
No end group written: not given here.

What was measured:
NMDAR/PSD-95 interaction = NMDAR/PSD-95 interaction (Rattus norvegicus, UniProt P31016); assay type: binding; settings: as compared with controls
[1] = test system: cultured cortical neurons; assay: Intracellular peptide delivery into cortical neuronal cultures (dansyl fluorescence, confocal microscopy); assay type: cell-based, mouse; settings: bath applied to cultured cortical neurons; dansyl peptides 10 μM
Procedure: I bath applied these to cultured cortical neurons and observed their fluorescence by confocal microscopy. […] Tat-NR2B9c-dansyl was detectable in the neurons within 10 min of the start of the application and the peptide accumulated to a maximum level over the next 20 min (FIG. 5C). This level was maintained until the dansyl-Tat-NR2B9c was washed from the bath and the peptide remained detectable within the neurons for more than 5 hours thereafter.

NMDAR/PSD-95 interaction, sequence (P31016 whole entry): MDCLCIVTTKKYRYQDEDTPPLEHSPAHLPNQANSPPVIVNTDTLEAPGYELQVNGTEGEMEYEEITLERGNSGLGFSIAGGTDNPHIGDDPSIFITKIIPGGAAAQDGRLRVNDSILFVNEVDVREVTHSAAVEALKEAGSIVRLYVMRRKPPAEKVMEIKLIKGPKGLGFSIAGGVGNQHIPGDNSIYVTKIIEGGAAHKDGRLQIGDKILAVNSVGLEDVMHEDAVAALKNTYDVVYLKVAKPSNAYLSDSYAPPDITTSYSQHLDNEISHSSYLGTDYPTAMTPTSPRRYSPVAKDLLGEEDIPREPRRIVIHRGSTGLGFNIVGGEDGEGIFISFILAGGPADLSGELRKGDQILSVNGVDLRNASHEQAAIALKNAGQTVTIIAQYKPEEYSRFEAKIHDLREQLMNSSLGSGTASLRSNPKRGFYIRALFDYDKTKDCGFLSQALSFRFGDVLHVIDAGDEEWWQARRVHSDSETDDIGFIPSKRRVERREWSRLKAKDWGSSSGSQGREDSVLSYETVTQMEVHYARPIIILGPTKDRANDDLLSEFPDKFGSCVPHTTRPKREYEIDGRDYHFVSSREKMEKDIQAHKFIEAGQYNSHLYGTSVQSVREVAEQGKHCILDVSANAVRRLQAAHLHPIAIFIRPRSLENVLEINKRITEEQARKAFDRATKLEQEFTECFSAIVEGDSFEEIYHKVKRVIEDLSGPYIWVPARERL

KALGISYGRKK [Tat38-48] was tested. Which “reduction of co-immunoprecipitation of PSD-95 with NR2B (optical density signal)” value (NMDAR/PSD-95 interaction) did it give?
The value was “none of the three control peptides reduced”.

For KLSSIESDV [NR2B9c], which “entry into cells / intracellular fluorescence” value [1] is on record?
The value was “did not enter cells”.
